These results are taken from patent US20250326865A1, “C-MET PROTEIN-BINDING PEPTIDE COMPLEX” (PeptiDream Inc., priority 2021, published 2025).

The assay concerns the target T1, c-Met (Homo sapiens, UniProt P08581).
T1 construct: endogenous in cells; host or cells: A431 (human)
Briefly: Phospho-c-Met AlphaLISA assay (c-Met agonist activity) in A431 cells. In kind it is cell-based. Particulars: 15 minutes of stimulation; for C-Met Agonist Activity (2 or 1): c-Met phosphorylation (Tyr1234/1235) in A431 cells, maximum signal induced by HGF = 100%; for EC50: concentration of peptide showing 50% activity of the signal induced by HGF, A431 cells, read-out: C-Met Agonist Activity (C50; nM). Here is the method: To evaluate the activation potency (c-Met agonist activity) of c-Met of the peptide complex of the present invention, the phosphorylation of c-Met was verified. Human A431 cells were cultured in DMEM high glucose, GlutaMAX (registered trademark) Supplement, pyruvate (Thermo Fisher Scientific), containing 10% FBS (Gibco). After cells were detached using Accutase (Innovative cell technologies), they were seeded into a 96-well plate at 10000 cells per well and cultured overnight. The next day, for starvation, the culture medium was changed to DMEM high glucose, GlutaMAX (registered trademark) Supplement, pyruvate (Thermo Fisher Scientific), containing 0.1% BSA (Sigma-Aldrich), and the cells were cultured overnight. Then, the peptide complex synthesized in Example 3 or Recombinant Human HGF Protein (R&D systems) as a control was added, and after 15 minutes of stimulation, cells were lysed in a Lysis Buffer provided in the AlphaLISA (registered trademark) SureFire (registered trademark) Ultra™ Phospho-c-Met (Tyr1234/1235) kit (PerkinElmer). The assay was performed according to the kit protocol, and a SpectraMax (registered trademark) Paradigm (registered trademark) multimode microplate reader (Molecular Devices, LLC.) was used for signal detection. […] In the same manner, the C50 value was calculated by GraphPad Prism as the concentration of peptide showing 50% activity of the signal induced by HGF. […] Further, for a complex (GFs_c-Met-00014336-PEG13 dimer; complex no. 49 in Table 4) of a peptide (SEQ ID NO: 34) and a linker (SEQ ID NO: 37), a graph of c-Met agonist activity is shown in FIG. 1.
(In general: In Alpha technology, singlet oxygen from a donor bead excites a nearby acceptor bead.)

Starred links: 1 amine or outer side, 2 acyl side, 3 side chain; linkers in the order of their positions; H or OH if unused. Positions of bridges follow the written chain, without caps; N, C: chain ends. Non-standard residues stand in square brackets, D forms with d. Residues, ends and D or L forms follow the SMILES beside them. Primed or numbered codes have the meaning given here. Chains are numbered I, II in the order given. No end group written: not given here. CO(CH2CH2O)9CH2CH2CO = O=C(CCOCCOCCOCCOCCOCCOCCOCCOCCOCCC(=O)[*:2])[*:1]; PEG12 = NCCOCCOCCOCCOCCOCCOCCOCCOCCOCCOCCOCCOCCC(=O)O; NMeF = CN[C@@H](Cc1ccccc1)C(=O)O; Ahp(2) = CCCCC[C@H](N)C(=O)O; NMeC = CN[C@@H](CS)C(=O)O; Nle = CCCC[C@H](N)C(=O)O; Ahp′ = not defined here; Abu = CC[C@H](N)C(=O)O

T1 sequence (P08581 25-1390): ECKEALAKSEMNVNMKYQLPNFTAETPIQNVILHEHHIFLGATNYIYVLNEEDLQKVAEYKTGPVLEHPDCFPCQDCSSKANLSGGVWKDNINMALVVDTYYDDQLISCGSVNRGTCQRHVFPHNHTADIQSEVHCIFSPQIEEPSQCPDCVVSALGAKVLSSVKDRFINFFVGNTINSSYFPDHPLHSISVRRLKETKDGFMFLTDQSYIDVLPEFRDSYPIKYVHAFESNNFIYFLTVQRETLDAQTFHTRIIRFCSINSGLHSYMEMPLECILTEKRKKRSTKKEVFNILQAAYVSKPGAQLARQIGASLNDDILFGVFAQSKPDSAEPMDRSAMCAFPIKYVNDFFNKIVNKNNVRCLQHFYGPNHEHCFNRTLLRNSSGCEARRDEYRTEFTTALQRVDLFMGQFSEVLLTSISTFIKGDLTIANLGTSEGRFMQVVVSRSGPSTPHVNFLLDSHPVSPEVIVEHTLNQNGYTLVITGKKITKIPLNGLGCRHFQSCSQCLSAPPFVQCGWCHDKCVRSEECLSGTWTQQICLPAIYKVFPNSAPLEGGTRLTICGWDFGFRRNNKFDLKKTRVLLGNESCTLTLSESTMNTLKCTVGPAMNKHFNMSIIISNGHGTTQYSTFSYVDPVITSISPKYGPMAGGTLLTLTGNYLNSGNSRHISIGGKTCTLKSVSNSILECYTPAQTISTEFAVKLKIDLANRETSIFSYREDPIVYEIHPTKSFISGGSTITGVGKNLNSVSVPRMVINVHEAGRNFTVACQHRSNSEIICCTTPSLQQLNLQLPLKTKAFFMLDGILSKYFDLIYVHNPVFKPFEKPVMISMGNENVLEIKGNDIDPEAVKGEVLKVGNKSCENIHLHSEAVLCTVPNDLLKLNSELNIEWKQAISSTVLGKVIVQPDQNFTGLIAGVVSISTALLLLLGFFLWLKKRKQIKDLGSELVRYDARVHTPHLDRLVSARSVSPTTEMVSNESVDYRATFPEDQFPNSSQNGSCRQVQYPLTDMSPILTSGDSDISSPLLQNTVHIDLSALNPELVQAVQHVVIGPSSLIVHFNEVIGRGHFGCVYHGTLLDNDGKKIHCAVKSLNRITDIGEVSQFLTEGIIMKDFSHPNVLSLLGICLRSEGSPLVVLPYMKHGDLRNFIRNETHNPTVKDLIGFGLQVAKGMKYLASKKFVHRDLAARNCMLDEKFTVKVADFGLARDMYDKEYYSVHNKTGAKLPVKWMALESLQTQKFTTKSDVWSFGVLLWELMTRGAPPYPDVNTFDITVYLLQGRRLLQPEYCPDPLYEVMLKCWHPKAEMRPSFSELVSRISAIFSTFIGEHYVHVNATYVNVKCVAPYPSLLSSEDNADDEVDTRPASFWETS

Regarding “11 ({CH2CO}-[NMeF]VYVS[NMeF]DDD[Ahp′]PRW[Abu][NMeC]; thioether N-15 (inferred); not fully specified; reading uncertain; also: conjugated moiety via linker) [Peptide 11]”, the “C-Met Agonist Activity (2 or 1)” value was 2 (those showing more than 50% activation were described as 2). “10 ({CH2CO}-[NMeF]VYVS[NMeF]DDD[Ahp′]PSWS[NMeC]; thioether N-15 (inferred); not fully specified; reading uncertain; also: conjugated moiety via linker) [Peptide 10]”: the “C-Met Agonist Activity (2 or 1)” value was 1 (those showing less than 50% activation as 1). Still for that read-out and setting: for “14 ({CH2CO}-[NMeF]VYVS[NMeF]DDD[Ahp′]PRWQ[NMeC]; thioether N-15 (inferred); not fully specified; reading uncertain; also: conjugated moiety via linker) [Peptide 14]” the value was 2 (those showing more than 50% activation were described as 2).

As for `CCCCC[C@@H]1NC(=O)[C@H](CC(=O)O)NC(=O)[C@H](CC(=O)O)NC(=O)[C@H](CC(=O)O)NC(=O)[C@H](Cc2ccccc2)N(C)C(=O)[C@H](CO)NC(=O)[C@H](C(C)C)NC(=O)[C@H](Cc2ccc(O)cc2)NC(=O)[C@H](C(C)C)NC(=O)[C@H](Cc2ccccc2)N(C)C(=O)CSC[C@@H](C(=O)NCCOCCOCCOCCOCCOCCOCCOCCOCCOCCOCCOCCOCCC(=O)NCCCC[C@H](NC(=O)CCOCCOCCOCCOCCOCCOCCOCCOCCOCCOCCOCCOCCNC(=O)[C@@H]2CSCC(=O)N(C)[C@@H](Cc3ccccc3)C(=O)N[C@@H](C(C)C)C(=O)N[C@@H](Cc3ccc(O)cc3)C(=O)N[C@@H](C(C)C)C(=O)N[C@@H](CO)C(=O)N(C)[C@@H](Cc3ccccc3)C(=O)N[C@@H](CC(=O)O)C(=O)N[C@@H](CC(=O)O)C(=O)N[C@@H](CC(=O)O)C(=O)N[C@@H](CCCCC)C(=O)N3CCC[C@H]3C(=O)N[C@@H](CCCNC(=N)N)C(=O)N[C@@H](Cc3c[nH]c4ccccc34)C(=O)N[C@@H](C)C(=O)N2C)C(N)=O)N(C)C(=O)[C@H](C)NC(=O)[C@H](Cc2c[nH]c3ccccc23)NC(=O)[C@H](CCCNC(=N)N)NC(=O)[C@@H]2CCCN2C1=O` [Peptide 22] (I: {CH2CO}-[NMeF]VYVS[NMeF]DDD[Ahp(2)]PRWA[NMeC][PEG12]K-NH2 / II: {CH2CO}-[NMeF]VYVS[NMeF]DDD[Ahp(2)]PRWA[NMeC][PEG12]; amide I:17-II:C; thioether I:N-I:15, II:N-II:15), the EC50 turned out to be 2.37 nM.

For the compound `CCCCC[C@@H]1NC(=O)[C@H](CC(=O)O)NC(=O)[C@@H]2CCCN2C(=O)[C@H](CC(=O)O)NC(=O)[C@H](Cc2ccccc2)N(C)C(=O)[C@H](CO)NC(=O)[C@H](C(C)C)NC(=O)[C@H](C)NC(=O)[C@H](CCC(=O)O)NC(=O)[C@H](Cc2ccccc2)N(C)C(=O)CSC[C@@H](C(=O)NCC(=O)N[C@@H](CCCCNC(=O)CCOCCOCCOCCOCCOCCOCCOCCOCCOCCC(=O)NCCCC[C@H](NC(=O)CNC(=O)[C@@H]2CSCC(=O)N(C)[C@@H](Cc3ccccc3)C(=O)N[C@@H](CCC(=O)O)C(=O)N[C@@H](C)C(=O)N[C@@H](C(C)C)C(=O)N[C@@H](CO)C(=O)N(C)[C@@H](Cc3ccccc3)C(=O)N[C@@H](CC(=O)O)C(=O)N3CCC[C@H]3C(=O)N[C@@H](CC(=O)O)C(=O)N[C@@H](CCCCC)C(=O)N3CCC[C@H]3C(=O)N[C@@H](CCCNC(=N)N)C(=O)N[C@@H](Cc3c[nH]c4ccccc34)C(=O)N[C@@H](CO)C(=O)N2C)C(N)=O)C(N)=O)N(C)C(=O)[C@H](CO)NC(=O)[C@H](Cc2c[nH]c3ccccc23)NC(=O)[C@H](CCCNC(=N)N)NC(=O)[C@@H]2CCCN2C1=O` [Peptide 30] (I: {CH2CO}-[NMeF]EAVS[NMeF]DPD[Ahp(2)]PRWS[NMeC]GK-NH2 / II: {CH2CO}-[NMeF]EAVS[NMeF]DPD[Ahp(2)]PRWS[NMeC]GK-NH2; linker I:17-II:17 via CO(CH2CH2O)9CH2CH2CO (inferred); thioether I:N-I:15, II:N-II:15 (inferred)), the EC50 was found to be 0.81 nM. For “7 ({CH2CO}-[NMeF]VYVS[NMeF]DVD[Ahp′]PRWS[NMeC]; thioether N-15 (inferred); not fully specified; reading uncertain; also: conjugated moiety via linker) [Peptide 7]”, the “C-Met Agonist Activity (2 or 1)” value was 2 (those showing more than 50% activation were described as 2). Same read-out and setting: for “15 ({CH2CO}-[NMeF]VYVS[NMeF]DDD[Ahp′]PRWV[NMeC]; thioether N-15 (inferred); not fully specified; reading uncertain; also: conjugated moiety via linker) [Peptide 15]” the value was 2 (those showing more than 50% activation were described as 2). The same measure, in the same setting: for “4 (AVYVS[NMeF]DDD[Ahp′]PRWS[NMeC]; not fully specified (N-terminus, bridges); reading uncertain; also: conjugated moiety via linker) [Peptide 4]” the value was 1 (those showing less than 50% activation as 1). As for `CCCCC[C@@H]1NC(=O)[C@H](CC(=O)O)NC(=O)[C@H](CO)NC(=O)[C@H](CC(=O)O)NC(=O)[C@H](Cc2ccccc2)N(C)C(=O)[C@H](CO)NC(=O)[C@H](C(C)C)NC(=O)[C@H](C)NC(=O)[C@H]([C@@H](C)O)NC(=O)[C@H](Cc2ccccc2)N(C)C(=O)CSC[C@@H](C(=O)NCC(=O)N[C@@H](CCCCNC(=O)CCOCCOCCOCCOCCOCCOCCOCCOCCOCCC(=O)NCCCC[C@H](NC(=O)CNC(=O)[C@@H]2CSCC(=O)N(C)[C@@H](Cc3ccccc3)C(=O)N[C@@H]([C@@H](C)O)C(=O)N[C@@H](C)C(=O)N[C@@H](C(C)C)C(=O)N[C@@H](CO)C(=O)N(C)[C@@H](Cc3ccccc3)C(=O)N[C@@H](CC(=O)O)C(=O)N[C@@H](CO)C(=O)N[C@@H](CC(=O)O)C(=O)N[C@@H](CCCCC)C(=O)N3CCC[C@H]3C(=O)N[C@@H](CCCNC(=N)N)C(=O)N[C@@H](Cc3c[nH]c4ccccc34)C(=O)N[C@@H](C)C(=O)N2C)C(N)=O)C(N)=O)N(C)C(=O)[C@H](C)NC(=O)[C@H](Cc2c[nH]c3ccccc23)NC(=O)[C@H](CCCNC(=N)N)NC(=O)[C@@H]2CCCN2C1=O` [Peptide 44] (I: {CH2CO}-[NMeF]TAVS[NMeF]DSD[Ahp(2)]PRWA[NMeC]GK-NH2 / II: {CH2CO}-[NMeF]TAVS[NMeF]DSD[Ahp(2)]PRWA[NMeC]GK-NH2; linker I:17-II:17 via CO(CH2CH2O)9CH2CH2CO (inferred); thioether I:N-I:15, II:N-II:15 (inferred)), the EC50 was 0.33 nM.

On to “8 ({CH2CO}-[NMeF]VYVS[NMeF]DDD[Nle]PRWS[NMeC]; thioether N-15 (inferred); not fully specified; also: conjugated moiety via linker) [Peptide 8]”, for which the “C-Met Agonist Activity (2 or 1)” value is 2 (those showing more than 50% activation were described as 2). Same read-out and setting: the same measure for “3 ({CH2CO}-FVYVS[NMeF]DDD[Ahp′]PRWS[NMeC]; thioether N-15 (inferred); not fully specified; reading uncertain; also: conjugated moiety via linker) [Peptide 3]”: 1 (those showing less than 50% activation as 1); for “6 ([NMeF]VDVS[NMeF]DDD[Ahp′]PRWS[NMeC]; not fully specified; reading uncertain) [Peptide 6]”: 2 (those showing more than 50% activation were described as 2); for “9 ([NMeF]VYVS[NMeF]DDDSPRWS[NMeC]; also: conjugated moiety via linker, site not given here) [Peptide 9]”: 2 (those showing more than 50% activation were described as 2).

On to “1 ({CH2CO}-[NMeF]VYVS[NMeF]DDD[Ahp′]PRWS[NMeC]; thioether N-15 (inferred); not fully specified; reading uncertain; also: conjugated moiety via linker) [Peptide 1]”, for which the “C-Met Agonist Activity (2 or 1)” value is on record as 2 (those showing more than 50% activation were described as 2).
